How the values were obtained:
[1] = test system: EMRSA-15; experiment: Data Set 2: Aurograb dose ranging study in infected mice; assay type: in vivo, S. aureus; settings: for Kidney log cfu per gram of tissue / Liver log cfu per gram of tissue / Spleen log cfu per gram of tissue: 48 hours; for Reduction in kidney bacterial counts: Experiment 1
Method: Aims: Dose ranging study for use of Aurograb versus S. aureus strain EMRSA-15.
Dose range is determined by comparing cfu (expressed as the log of the cfu per gram of tissue) for different organs at different doses.
[…] All mice terminated at 48 hours for culture of kidney, liver and spleen to determine organ viability counts.
Results: expressed as log cfu per gram of tissue
Experiment 1: S. aureus (1.5×10^7 cfu): EMRSA-15 (Table 5)
Experiment 2: S. aureus (9×10^6 cfu): clinical isolate EMRSA-15—low dose Aurograb (Table 6)

[2] = mice
Method: The pharmacokinetic (PK) characteristics of Aurograb have been studied in mice. A murine model was used because efficacy and dose ranging studies have been performed in this species as were the repeat dose toxicology studies. Mice were given a single high dose as an iv bolus and then examined in duplicate for blood levels and organ distribution. Urine samples were also analysed. Samples were analysed for functional activity, measured by ELISA (blood samples only) and drug concentration (SDS PAGE/immunoblots).

[3] = test system: EMRSA-15; experiment: Data Set 1: murine sub-lethal infection, Aurograb alone; assay type: in vivo, S. aureus
From the text: The murine model of staphylococcal infection is widely used and is routinely used in the assessment of antimicrobial drugs. It is a good predictor of efficacy in infected humans since S. aureus is introduced intravenously to create a bacteraemia, from which the pathogen spreads to other organs, including the kidney, liver and spleen.
Method: 20 female CD-1 mice were given a sub-lethal challenge (1.3×10^7 cfu) of a methicillin-resistant, vancomycin-sensitive strain of S. aureus (EMRSA-15, Typed Hospital Isolate, Central Manchester Healthcare Trust) in 100 μl iv bolus (all iv injections given via the lateral tail vein). 1 hour later, two groups of 10 mice, received, as 100 μl iv bolus: • 1. formulation buffer (Arginine-Urea), as negative control or • 2. Aurograb (2.0 mg/kg) in formulation buffer.
All animals were sacrificed after a further 48 h and viable cfu per gram of organ were determined.

[4] = Storage stability and iv fluid compatibility of Aurograb; assay type: physicochemical
Method: The lyophilised drug is stored in glass vials at 4° C. in the dark. Overnight transport at ambient temperatures is acceptable. Avoid prolonged exposure to bright light or excessive humidity. No change in Aurograb activity after storage at 4° C. (3 months) has been observed.
After reconstitution with water, Aurograb must be stored at 4° C. and should be used within 14 hours.
Saline for iv use is compatible with reconstituted Aurograb (at a 50:50 dilution).

[5] = Experiment 1, 1.5×10^7 cfu EMRSA-15, Aurograb 0.2 mg/kg single iv dose
[6] = Experiment 1, 1.5×10^7 cfu EMRSA-15, Aurograb 1 mg/kg single iv dose
[7] = Experiment 1, 1.5×10^7 cfu EMRSA-15, Aurograb 2 mg/kg single iv dose
[8] = Experiment 2, 9×10^6 cfu clinical isolate EMRSA-15, Aurograb 0.2 mg/kg
[9] = Experiment 2, doses as low as 0.2 mg
[10] = CD-1 mice, 1.3×10^7 cfu EMRSA-15 iv, Aurograb 2 mg/kg iv 1 hour later, 48 h

B1: Aurograb: human genetic recombinant antibody (scFv with histidine tag, SEQ ID NO: 2) binding GrfA, a staphylococcal ABC transporter protein (protein)
scFv: MAKVQLLQSATEVKKPGASVKVSCKAYGYTFTDYGITWVRQAPGQGLEWMGWISAYNGYTNYAQKFQDRITMTTDASTSTAYMELRSLRPDDTAVLYCARDREDASLLRDGHWGQGTLVTVSSGGGGSGGGGSGGGGSGGGGSETTLTQSPGTLSLSPGERATLSCRASQIVSSSYLAWYQQKPGQAPRLLIYGASSRATGIPDRFSGSGSGTDFTLTISKLEPEDFAVYYCQHYGSSSPWTSRPRDQSDIKRAAALEHHHHHH
modifications: histidine tag; human single chain (scFv) recombinant antibody
[1]; [5]
  Kidney log cfu per gram of tissue: 8.5 ± 2.55 log cfu per gram of tissue
  Liver log cfu per gram of tissue: 6.61 ± 3.03 log cfu per gram of tissue
  Spleen log cfu per gram of tissue: 5.69 ± 1.16 log cfu per gram of tissue
[1]; [6]
  Kidney log cfu per gram of tissue: 8.7 ± 2.6 log cfu per gram of tissue
  Liver log cfu per gram of tissue: 5.40 ± 1.38 log cfu per gram of tissue
  Spleen log cfu per gram of tissue: 5.33 ± 1.21 log cfu per gram of tissue
[1]; [7]
  Kidney log cfu per gram of tissue: 7.62 ± 1.16 log cfu per gram of tissue
  Liver log cfu per gram of tissue: 5.22 ± 1.39 log cfu per gram of tissue
  Spleen log cfu per gram of tissue: 5.10 ± 1.29 log cfu per gram of tissue
[1]; highest dose (2.0 mg/kg)
  Reduction in kidney bacterial counts: 0.8 log
[1]; lower doses
  Reduction in kidney bacterial counts: no reduction
[1]; [8]
  Kidney log cfu per gram of tissue: 7.14 ± 1.28 log cfu per gram of tissue
  Liver log cfu per gram of tissue: 3.13 ± 0.44 log cfu per gram of tissue
  Spleen log cfu per gram of tissue: 3.40 ± 0.64 log cfu per gram of tissue
[1]; [9]
  Bacterial killing in the liver and spleen: evidence of bacterial killing
  Reduction in viable staphylococci in the kidneys: no reduction
[1]; single dose of 2.0 mg/kg in mice
  Drop in liver and spleen counts: approximately 2.0 log
[2]; lungs, brain, liver, spleen, heart, kidney and blood
  Time by which all organs were cleared: ≤ 24 h
[2]; single intravenous bolus injection 10 mg/kg
  Blood levels: satisfactory blood levels
[3]; [10]
  Kidney Log cfu/g tissue: 7.20 ± 1.15 Log cfu/g tissue
  Liver Log cfu/g tissue: 3.63 ± 0.68 Log cfu/g tissue
  Spleen Log cfu/g tissue: 3.79 ± 0.82 Log cfu/g tissue
[3]; kidney, liver and spleen, Aurograb 2 mg/kg vs formulation buffer
  Reduction in viable organisms found in all three organs: 10 fold
[4]; left at room temperature
  Activity after reconstitution with water: slowly deteriorate
[4]; lyophilised drug, 4° C., 3 months
  Change in activity after storage: No change
[4]; reconstituted Aurograb, 50:50 dilution
  Compatibility with saline for iv use: compatible
[4]; reconstituted Aurograb, reduction in ELISA activity
  Compatibility with 20% glucose and sodium bicarbonate buffer: less compatible
